# The supplement of paper PMC10567573
# B1: KRT33B (parent)
# chain: PAVDLNQVLNETRNQYEALVETNR
# Variants of: B1
# Assay: protein stability index of a GFP-peptide fusion (GPS, HEK-293T) (PSI 1-6); higher = more stable
# Details: c terminus: a fixed tail appended
# 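Also: lentivirally expressed fusions sorted by FACS into six bins by GFP to DsRed ratio, PSI derived from sequencing read proportions per bin multiplied by bin number.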
row,Variant,protein stability index
1,PAVLLNQVLNETRNQYEALVETNR [D4L],3.55
2,PAVGLNQVLNETRNQYEALVETNR [D4G],4.02
3,PAVQLNQVLNETRNQYEALVETNR [D4Q],4.31
4,PAVTLNQVLNETRNQYEALVETNR [D4T],3.08
5,PAVYLNQVLNETRNQYEALVETNR [D4Y],3.44
6,PAVCLNQVLNETRNQYEALVETNR [D4C],3.88
7,PAVILNQVLNETRNQYEALVETNR [D4I],3.41
8,PAVELNQVLNETRNQYEALVETNR [D4E],3.86
9,PAVMLNQVLNETRNQYEALVETNR [D4M],4.15
10,PAVPLNQVLNETRNQYEALVETNR [D4P],3.74
11,PAVSLNQVLNETRNQYEALVETNR [D4S],2.74
12,PAVHLNQVLNETRNQYEALVETNR [D4H],4.22
13,PAVRLNQVLNETRNQYEALVETNR [D4R],3.76
14,PAVALNQVLNETRNQYEALVETNR [D4A],3.94
15,PAVNLNQVLNETRNQYEALVETNR [D4N],4.46
16,PAVVLNQVLNETRNQYEALVETNR [D4V],3.99
17,PAVFLNQVLNETRNQYEALVETNR [D4F],2.82
18,PAVKLNQVLNETRNQYEALVETNR [D4K],4
19,PAVWLNQVLNETRNQYEALVETNR [D4W],2.64
20,PAVDLPQVLNETRNQYEALVETNR [N6P],4.33
21,PAVDLCQVLNETRNQYEALVETNR [N6C],2.56
22,PAVDLFQVLNETRNQYEALVETNR [N6F],2.31
23,PAVDLKQVLNETRNQYEALVETNR [N6K],3.27
24,PAVDLHQVLNETRNQYEALVETNR [N6H],2.97

row,Variant,protein stability index
1,PAVDLLQVLNETRNQYEALVETNR [N6L],1.71
2,PAVDLAQVLNETRNQYEALVETNR [N6A],2.77
3,PAVDLEQVLNETRNQYEALVETNR [N6E],1.97
4,PAVDLYQVLNETRNQYEALVETNR [N6Y],2.64
5,PAVDLMQVLNETRNQYEALVETNR [N6M],1.34
6,PAVDLTQVLNETRNQYEALVETNR [N6T],3.43
7,PAVDLDQVLNETRNQYEALVETNR [N6D],2.8
8,PAVDLWQVLNETRNQYEALVETNR [N6W],1.82
9,PAVDLGQVLNETRNQYEALVETNR [N6G],4.3
10,PAVDLRQVLNETRNQYEALVETNR [N6R],3.13
11,PAVDLSQVLNETRNQYEALVETNR [N6S],3.54
12,PAVDLQQVLNETRNQYEALVETNR [N6Q],2.83
13,PAVDLIQVLNETRNQYEALVETNR [N6I],2.05
14,PAVDLVQVLNETRNQYEALVETNR [N6V],2.43
15,PAVDLNQVPNETRNQYEALVETNR [L9P],4.72
16,PAVDLNQVTNETRNQYEALVETNR [L9T],4.61
17,PAVDLNQVRNETRNQYEALVETNR [L9R],4.36
18,PAVDLNQVSNETRNQYEALVETNR [L9S],4.96
19,PAVDLNQVINETRNQYEALVETNR [L9I],3.55
20,PAVDLNQVHNETRNQYEALVETNR [L9H],4.2
21,PAVDLNQVCNETRNQYEALVETNR [L9C],4.91
22,PAVDLNQVVNETRNQYEALVETNR [L9V],4.65
23,PAVDLNQVANETRNQYEALVETNR [L9A],5.16
24,PAVDLNQVYNETRNQYEALVETNR [L9Y],4.53

row,Variant,protein stability index
1,PAVDLNQVDNETRNQYEALVETNR [L9D],4.52
2,PAVDLNQVQNETRNQYEALVETNR [L9Q],4.24
3,PAVDLNQVMNETRNQYEALVETNR [L9M],4.13
4,PAVDLNQVKNETRNQYEALVETNR [L9K],5.09
5,PAVDLNQVENETRNQYEALVETNR [L9E],4.93
6,PAVDLNQVFNETRNQYEALVETNR [L9F],4.25
7,PAVDLNQVNNETRNQYEALVETNR [L9N],5.13
8,PAVDLNQVWNETRNQYEALVETNR [L9W],4.32
9,PAVDLNQVGNETRNQYEALVETNR [L9G],4.76
10,PAVDLNQLLNETRNQYEALVETNR [V8L],1.45
11,PAVDLNQELNETRNQYEALVETNR [V8E],4.7
12,PAVDLNQMLNETRNQYEALVETNR [V8M],2.66
13,PAVDLNQILNETRNQYEALVETNR [V8I],2.98
14,PAVDLNQPLNETRNQYEALVETNR [V8P],5.14
15,PAVDLNQSLNETRNQYEALVETNR [V8S],4.43
16,PAVDLNQQLNETRNQYEALVETNR [V8Q],4.64
17,PAVDLNQRLNETRNQYEALVETNR [V8R],4.93
18,PAVDLNQNLNETRNQYEALVETNR [V8N],4.83
19,PAVDLNQCLNETRNQYEALVETNR [V8C],3.71
20,PAVDLNQTLNETRNQYEALVETNR [V8T],4.41
21,PAVDLNQALNETRNQYEALVETNR [V8A],3.84
22,PAVDLNQKLNETRNQYEALVETNR [V8K],4.56
23,PAVDLNQDLNETRNQYEALVETNR [V8D],4.77
24,PAVDLNQYLNETRNQYEALVETNR [V8Y],2.49

row,Variant,protein stability index
1,PAVDLNQGLNETRNQYEALVETNR [V8G],4.91
2,PAVDLNQFLNETRNQYEALVETNR [V8F],3.78
3,PAVDLNQWLNETRNQYEALVETNR [V8W],3.42
4,PAVDLNQHLNETRNQYEALVETNR [V8H],4.05
5,PAVDLNNVLNETRNQYEALVETNR [Q7N],4.33
6,PAVDLNIVLNETRNQYEALVETNR [Q7I],3.55
7,PAVDLNTVLNETRNQYEALVETNR [Q7T],2.97
8,PAVDLNWVLNETRNQYEALVETNR [Q7W],4.22
9,PAVDLNFVLNETRNQYEALVETNR [Q7F],3.79
10,PAVDLNMVLNETRNQYEALVETNR [Q7M],4.24
11,PAVDLNPVLNETRNQYEALVETNR [Q7P],4.78
12,PAVDLNGVLNETRNQYEALVETNR [Q7G],4.59
13,PAVDLNRVLNETRNQYEALVETNR [Q7R],3.95
14,PAVDLNHVLNETRNQYEALVETNR [Q7H],4.38
15,PAVDLNEVLNETRNQYEALVETNR [Q7E],3.11
16,PAVDLNLVLNETRNQYEALVETNR [Q7L],4.06
17,PAVDLNVVLNETRNQYEALVETNR [Q7V],3.86
18,PAVDLNKVLNETRNQYEALVETNR [Q7K],3.91
19,PAVDLNSVLNETRNQYEALVETNR [Q7S],4.01
20,PAVDLNDVLNETRNQYEALVETNR [Q7D],3.73
21,PAVDLNCVLNETRNQYEALVETNR [Q7C],3.57
22,PAVDLNAVLNETRNQYEALVETNR [Q7A],3.27
